Measurements published in patent US20120324602A1.
Blank lines part the entries; values can stand above or below the binder they belong to.

How the values were obtained:
[1] = biological target: DNA-binding bromodomain-containing protein (AT1G20670) (Arabidopsis thaliana); assay: TAP-MS, C-terminal GS tag
[2] = biological target: DNA-binding bromodomain-containing protein, similar to At1g20670 (AT1G76380) (Arabidopsis thaliana); assay: TAP-MS, C-terminal GS tag
[3] = biological target: T1, GLX1 (GLYOXALASE I HOMOLOG) (Arabidopsis thaliana); assay: TAP-MS, C-terminal GS tag
T1 sequence (O65398 2-283, looked up): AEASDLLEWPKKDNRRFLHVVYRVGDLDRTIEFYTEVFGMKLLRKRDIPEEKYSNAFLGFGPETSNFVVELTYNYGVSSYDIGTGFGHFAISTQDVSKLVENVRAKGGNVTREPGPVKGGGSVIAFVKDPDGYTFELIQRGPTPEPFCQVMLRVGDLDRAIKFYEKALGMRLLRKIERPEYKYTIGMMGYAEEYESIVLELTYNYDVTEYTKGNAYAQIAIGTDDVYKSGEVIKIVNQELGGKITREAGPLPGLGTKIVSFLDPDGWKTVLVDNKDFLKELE

[4] = biological target: OASA1 (O-… (THIOL) LYASE (OAS-TL) ISOFORM A1) (Arabidopsis thaliana); assay: TAP-MS, C-terminal GS tag
[5] = biological target: SNF2 protein (BRM) (Arabidopsis thaliana); assay: TAP-MS, C-terminal GS tag
[6] = biological target: SWIB complex BAF60b domain-containing protein (Swp73B) (Arabidopsis thaliana); assay: TAP-MS, C-terminal GS tag
[7] = biological target: Swp73A (Arabidopsis thaliana); assay: TAP-MS, C-terminal GS tag
[8] = biological target: T2, actin-related protein 4 (ARP4) (Arabidopsis thaliana); assay: TAP-MS, C-terminal GS tag
T2 sequence (Q84M92 1-441, looked up): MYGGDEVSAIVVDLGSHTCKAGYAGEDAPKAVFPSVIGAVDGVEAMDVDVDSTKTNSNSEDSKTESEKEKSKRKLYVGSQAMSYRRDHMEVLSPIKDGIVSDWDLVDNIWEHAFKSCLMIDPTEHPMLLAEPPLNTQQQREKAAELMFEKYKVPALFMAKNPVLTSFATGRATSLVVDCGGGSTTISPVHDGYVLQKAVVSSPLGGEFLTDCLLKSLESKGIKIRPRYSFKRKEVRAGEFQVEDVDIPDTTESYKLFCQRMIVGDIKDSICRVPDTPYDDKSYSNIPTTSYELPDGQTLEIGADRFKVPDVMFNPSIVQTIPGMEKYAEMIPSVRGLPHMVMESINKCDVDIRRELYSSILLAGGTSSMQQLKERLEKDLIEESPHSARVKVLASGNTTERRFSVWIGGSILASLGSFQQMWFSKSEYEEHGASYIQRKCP

[9] = biological target: T3, actin-related protein 7 (ARP7) (Arabidopsis thaliana); assay: TAP-MS, C-terminal GS tag
T3 sequence (Q8L4Y5 1-363, looked up): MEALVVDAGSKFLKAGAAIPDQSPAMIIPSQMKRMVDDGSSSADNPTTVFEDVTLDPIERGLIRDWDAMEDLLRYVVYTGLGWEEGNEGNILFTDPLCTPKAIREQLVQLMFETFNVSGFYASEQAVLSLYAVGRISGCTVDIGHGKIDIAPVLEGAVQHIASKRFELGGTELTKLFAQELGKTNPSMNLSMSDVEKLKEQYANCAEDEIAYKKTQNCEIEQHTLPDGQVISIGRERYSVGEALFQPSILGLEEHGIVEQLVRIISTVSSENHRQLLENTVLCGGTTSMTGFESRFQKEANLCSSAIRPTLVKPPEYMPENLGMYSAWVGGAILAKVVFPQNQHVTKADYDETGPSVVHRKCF

[10] = biological target: expressed protein, similar to At3g03460 (AT5G17510) (Arabidopsis thaliana); assay: TAP-MS, C-terminal GS tag
[11] = biological target: expressed protein, similar to At4g22320 (AT5G55210) (Arabidopsis thaliana); assay: TAP-MS, C-terminal GS tag
[12] = biological target: unknown, similar to At5g55210 (AT4G22320) (Arabidopsis thaliana); assay: TAP-MS, C-terminal GS tag
[13] = biological target: CPK23 (calcium-dependent protein kinase 23) (Arabidopsis thaliana); assay: TAP-MS, N-terminal GS tag
[14] = biological target: DNA-binding bromodomain-containing protein (AT1G20670) (Arabidopsis thaliana); assay: TAP-MS, N-terminal GS tag
[15] = biological target: DNA-binding bromodomain-containing protein, similar to At1g20670 (AT1G76380) (Arabidopsis thaliana); assay: TAP-MS, N-terminal GS tag
[16] = biological target: SNF2 protein (BRM) (Arabidopsis thaliana); assay: TAP-MS, N-terminal GS tag
[17] = biological target: SWIB complex BAF60b domain-containing protein (Swp73B) (Arabidopsis thaliana); assay: TAP-MS, N-terminal GS tag
[18] = biological target: Swp73A (Arabidopsis thaliana); assay: TAP-MS, N-terminal GS tag
[19] = biological target: T2, actin-related protein 4 (ARP4) (Arabidopsis thaliana); assay: TAP-MS, N-terminal GS tag
[20] = biological target: T3, actin-related protein 7 (ARP7) (Arabidopsis thaliana); assay: TAP-MS, N-terminal GS tag
[21] = biological target: expressed protein, similar to At3g03460 (AT5G17510) (Arabidopsis thaliana); assay: TAP-MS, N-terminal GS tag
[22] = biological target: expressed protein, similar to At4g22320 (AT5G55210) (Arabidopsis thaliana); assay: TAP-MS, N-terminal GS tag
[23] = biological target: unknown protein, similar to At5g17510 (AT3G03460) (Arabidopsis thaliana); assay: TAP-MS, N-terminal GS tag
[24] = biological target: AAC1 (ADP/ATP CARRIER 1) (Arabidopsis thaliana); assay: TAP-MS, C-terminal GS tag
[25] = biological target: HIS4 (Arabidopsis thaliana); assay: TAP-MS, C-terminal GS tag

C-GS (times co-purified) [1]: 2 | C-GS (times co-purified) [2]: 2 | C-GS (times co-purified) [3]: 1 | C-GS (times co-purified) [4]: 1 | C-GS (times co-purified) [5]: 2 | C-GS (times co-purified) [6]: 2 | C-GS (times co-purified) [7]: 2 | C-GS (times co-purified) [8]: 2 | C-GS (times co-purified) [9]: 2 | C-GS (times co-purified) [10]: 2 | C-GS (times co-purified) [11]: 2 | C-GS (times co-purified) [12]: 1
B1: SWI3C-GS (protein, UniProt Q9XI07 1-807, looked up)
SWI/SNF complex subunit SWI3C: MPASEDRRGKWKRKKRGGLSAARKPKQEEEDMEEEDEENNNNNNEEMDDVENADELQQNGGATPDPGLGIGEVVEDSGSRISDFPAVVKRVVIRPHASVMAVVAAERAGLIGETRGQGSLPALENISFGQLQALSTVPADSLDLERSDGSSSAYVISPPPIMDGEGVVKRFGDLVHVLPMHSDWFAPNTVDRLERQVVPQFFSGKSPNHTPESYMEFRNAIVSKYVENPEKTLTISDCQGLVDGVDIEDFARVFRFLDHWGIINYCATAQSHPGPLRDVSDVREDTNGEVNVPSAALTSIDSLIKFDKPNCRHKGGEVYSSLPSLDGDSPDLDIRIREHLCDSHCNHCSRPLPTVYFQSQKKGDILLCCDCFHHGRFVVGHSCLDFVRVDPMKFYGDQDGDNWTDQETLLLLEAVELYNENWVQIADHVGSKSKAQCILHFLRLPVEDGLLDNVEVSGVTNTENPTNGYDHKGTDSNGDLPGYSEQGSDTEIKLPFVKSPNPVMALVAFLASAVGPRVAASCAHESLSVLSEDDRMKSEGMQGKEASLLDGENQQQDGAHKTSSQNGAEAQTPLPQDKVMAAFRAGLSAAATKAKLFADHEEREIQRLSANIVNHQLKRMELKLKQFAEIETLLMKECEQVEKTRQRFSAERARMLSARFGSPGGISPQTNNLQGMSLSTGGNNINSLMHQQHQQQQASATSQPSIIPGFSNNPQVQAQMHFMARQQQQQQQQQQQQQQAFSFGPRLPLNAIQTNAGSTASPNVMFGNNQLNNPAAAGAASINQPSFSHPMVRSSTGSGSGSGLGLN
modifications: C-terminal GS tag

N-GS (times co-purified) [13]: 1 | N-GS (times co-purified) [14]: 3 | N-GS (times co-purified) [15]: 2 | N-GS (times co-purified) [16]: 3 | N-GS (times co-purified) [17]: 3 | N-GS (times co-purified) [18]: 3 | N-GS (times co-purified) [19]: 3 | N-GS (times co-purified) [20]: 3 | N-GS (times co-purified) [21]: 3 | N-GS (times co-purified) [22]: 2 | N-GS (times co-purified) [23]: 1
B2: GS-SWI3C (protein, UniProt Q9XI07 1-807, looked up)
SWI/SNF complex subunit SWI3C: MPASEDRRGKWKRKKRGGLSAARKPKQEEEDMEEEDEENNNNNNEEMDDVENADELQQNGGATPDPGLGIGEVVEDSGSRISDFPAVVKRVVIRPHASVMAVVAAERAGLIGETRGQGSLPALENISFGQLQALSTVPADSLDLERSDGSSSAYVISPPPIMDGEGVVKRFGDLVHVLPMHSDWFAPNTVDRLERQVVPQFFSGKSPNHTPESYMEFRNAIVSKYVENPEKTLTISDCQGLVDGVDIEDFARVFRFLDHWGIINYCATAQSHPGPLRDVSDVREDTNGEVNVPSAALTSIDSLIKFDKPNCRHKGGEVYSSLPSLDGDSPDLDIRIREHLCDSHCNHCSRPLPTVYFQSQKKGDILLCCDCFHHGRFVVGHSCLDFVRVDPMKFYGDQDGDNWTDQETLLLLEAVELYNENWVQIADHVGSKSKAQCILHFLRLPVEDGLLDNVEVSGVTNTENPTNGYDHKGTDSNGDLPGYSEQGSDTEIKLPFVKSPNPVMALVAFLASAVGPRVAASCAHESLSVLSEDDRMKSEGMQGKEASLLDGENQQQDGAHKTSSQNGAEAQTPLPQDKVMAAFRAGLSAAATKAKLFADHEEREIQRLSANIVNHQLKRMELKLKQFAEIETLLMKECEQVEKTRQRFSAERARMLSARFGSPGGISPQTNNLQGMSLSTGGNNINSLMHQQHQQQQASATSQPSIIPGFSNNPQVQAQMHFMARQQQQQQQQQQQQQQAFSFGPRLPLNAIQTNAGSTASPNVMFGNNQLNNPAAAGAASINQPSFSHPMVRSSTGSGSGSGLGLN
modifications: N-terminal GS tag

C-GS (times co-purified) [24]: 1 | C-GS (times co-purified) [25]: 1 | C-GS (times co-purified) [4]: 1 | C-GS (times co-purified) [11]: 2 | C-GS (times co-purified) [12]: 2
B3: ARP7-GS (protein, UniProt Q8L4Y5 1-363, looked up)
Actin-related protein 7: MEALVVDAGSKFLKAGAAIPDQSPAMIIPSQMKRMVDDGSSSADNPTTVFEDVTLDPIERGLIRDWDAMEDLLRYVVYTGLGWEEGNEGNILFTDPLCTPKAIREQLVQLMFETFNVSGFYASEQAVLSLYAVGRISGCTVDIGHGKIDIAPVLEGAVQHIASKRFELGGTELTKLFAQELGKTNPSMNLSMSDVEKLKEQYANCAEDEIAYKKTQNCEIEQHTLPDGQVISIGRERYSVGEALFQPSILGLEEHGIVEQLVRIISTVSSENHRQLLENTVLCGGTTSMTGFESRFQKEANLCSSAIRPTLVKPPEYMPENLGMYSAWVGGAILAKVVFPQNQHVTKADYDETGPSVVHRKCF
modifications: C-terminal GS tag
